The values that follow come from patent US5708158, “Nuclear factors and binding assays” (Tularik Inc., dated 1998).

This assay deals with T1, NFATc-589 (translated in vitro) (human).
T1 chain: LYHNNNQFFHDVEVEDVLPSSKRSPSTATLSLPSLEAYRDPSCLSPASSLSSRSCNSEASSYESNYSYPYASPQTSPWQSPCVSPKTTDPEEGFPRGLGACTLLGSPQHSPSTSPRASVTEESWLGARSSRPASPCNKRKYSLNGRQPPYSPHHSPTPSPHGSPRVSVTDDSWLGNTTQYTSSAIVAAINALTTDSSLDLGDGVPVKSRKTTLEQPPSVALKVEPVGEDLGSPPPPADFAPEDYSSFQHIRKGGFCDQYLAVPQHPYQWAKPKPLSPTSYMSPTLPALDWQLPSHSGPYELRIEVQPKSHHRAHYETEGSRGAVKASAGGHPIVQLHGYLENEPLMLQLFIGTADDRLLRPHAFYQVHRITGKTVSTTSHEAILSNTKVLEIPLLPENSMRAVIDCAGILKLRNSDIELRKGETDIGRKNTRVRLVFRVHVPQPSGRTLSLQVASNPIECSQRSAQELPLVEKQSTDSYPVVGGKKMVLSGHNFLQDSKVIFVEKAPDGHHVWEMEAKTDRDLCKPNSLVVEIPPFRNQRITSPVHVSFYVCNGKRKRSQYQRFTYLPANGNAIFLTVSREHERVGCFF
In words: gel mobility shift assay with two co-translated NFATc versions of different size; test for dimers on DNA. From the text: After determining that NFAT rel domains were monomers in solution, we then considered the possibility that NFAT proteins might form dimers when bound to DNA. To address this question we carried out gel mobility shift assays with two different sized versions of NFATc translated in vitro (Hope and Struhl 1987). The shorter version contains the rel similarity region and a small amount of flanking residues and is referred to as NFATc-309. This construct is equivalent to the one that was expressed in *E. coli*. The larger version, NFATc-589, contains additional N-terminal sequences. When expressed individually in a rabbit reticulocyte lysate both versions of NFATc were active and produced protein-DNA complexes with different mobilities. When the two different NFATc proteins were mixed by co-translation the same protein-DNA complexes were apparent and no intermediate species was detectable, as would be expected if the proteins were forming dimers on the DNA.
Electrophoretic mobility shift assays were performed with the indicated amounts of proteins in 50 mM KCl, 25 mM HEPES, 0.05 mM EDTA, 5% glycerol, 1 mM DTT with […] of poly(dI-dC) and 100 ng of BSA. The binding reactions and electrophoresis were carried out at room temperature. The samples were run on a 5% polyacrylamide, 0.5× TBE gel at 200 V.

B1: NFATc-309 (translated in vitro) (other)
chain: MSPTLPALDWQLPSHSGPYELRIEVQPKSHHRAHYETEGSRGAVKASAGGHPIVQLHGYLENEPLMLQLFIGTADDRLLRPHAFYQVHRITGKTVSTTSHEAILSNTKVLEIPLLPENSMRAVIDCAGILKLRNSDIELRKGETDIGRKNTRVRLVFRVHVPQPSGRTLSLQVASNPIECSQRSAQELPLVEKQSTDSYPVVGGKKMVLSGHNFLQDSKVIFVEKAPDGHHVWEMEAKTDRDLCKPNSLVVEIPPFRNQRITSPVHVSFYVCNGKRKRSQYQRFTYLPANGNAIFLTVSREHERVGCFF
With B1, the binding result was “no binding”.
